Experiment: soluble on expression in E. coli; label from the status in PepcDB or PDB records
For “MEMTSAFTLNVRLDNIAVITIDVPGEKMNTLKAEFASQVRAIIKQLRENKELRGVVFVSAKPDNFIAGADINMIGNCKTAQEAEALARQGQQLMAEIHALPIQVIAAIHGACLGGGLELALACHGRVCTDDPKTVLGLPEVQLGLLPGSGGTQRLPRLIGVSTALEMILTGKQLRAKQALKLGLVDDVVPHSILLEAAVELAKKERPSSRPLPVRERILAGPLGRALLFKMVGKKTEHKTQGNYPATERILEVVETGLAQGTSSGYDAEARAFGELAMTPQSQALRSIFFASTDVKKDPGSDAPPAPLNSVGILGGGLMGGGIAYVTACKAGIPVRIKDINPQGINHALKYSWDQLEGKVRRRHLKASERDKQLALISGTTDYRGFAHRDLIIEAVFENLELKQQMVAEVEQNCAAHTIFASNTSSLPIGDIAAHATRPEQVIGLHFFSPVEKMPLVEIIPHAGTSAQTIATTVKLAKKQGKTPIVVRDKAGFYVNRILAPYINEAIRMLTQGERVEHIDAALVKFGFPVGPIQLLDEVGIDTGTKIIPVLEAAYGERFSAPANVVSSILNDDRKGRKNGRGFYLYGQKGRKSKKQVDPAIYPLIGTQGQGRISAPQVAERCVMLMLNEAVRCVDEQVIRSVRDGDIGAVFGIGFPPFLGGPFRYIDSLGAGEVVAIMQRLATQYGSRFTPCERLVEMGARGESFWKTTATDLQ”, the “soluble on expression in E. coli” value was “soluble”.
With “MGHHHHHHSHMADIPSFQGTTLTRDTVRQLVSDIFIYKMPFNIELGLELQQFEADKAVLTFARQDKLIGNAAQKILHGGVIAAGLDVAAGLVCVGNTLLRHETISDQEFHHRLARMGTIDMRVDYLRPGYGERFTITSTLLRGGNKIAVARAELHNEQGSHLASATATYIVG” the “soluble on expression in E. coli” value was “soluble”.
With “MSEELSGVIIVLHKELSCRKEITDLQEISIALPDLMLSPKSKIVSDPASSKIDLNDRTTCSAEPNLFFVIFLSKNLNFSSKVFLSAVNNKSFSIQTRIT” the “soluble on expression in E. coli” value was “not soluble”.
In the case of “MVSEEEEEEDGDAEETQDSEDDEEDEMEEDDDDSDYPEEMEDDDDDASYCTESSFRSHSTYSSTPGRRKPRVHRPRSPILEEKDIPPLEFPKSSEDLMVPNEHIMNVIAIYEVLRNFGTVLRLSPFRFEDFCAALVSQEQCTLMAEMHVVLLKAVLREEDTSNTTFGPADLKDSVNSTLYFIDGMTWPEVLRVYCES”, the “soluble on expression in E. coli” value is reported as “not soluble”.
With “MNKEALVNRLNASAKRQKADIVIKNGKIMDVYNQEWIYEDIAITDGVIVGLGEYEGENIIDAEGQMIVPGFIDGHVHIESSMVTPIEFAKAVLPHGVTTVVTDPHEIANVSGEKGIEFMLEQARHTPLNIHFMLPSSVPAASFERSGAILKAADLKPFYEEEEVLGLAEVMDYVSVQQAEKDMVQKLLDARVAGKRIDGHLAGLSTDLINIYRTAFVLNDHEVTSKEEALDRIRRGMYVMMREGSVAKNTLNVLPAVNEKNRTPVFFCTDDKHVDDLLSEGSVNHQVKMAIQAGLNPFLAYQLGSLNAAECYGLDTKGAIAPGFDADLLFVSDLENVTVTMTMVKGQTVAEDSKAVYQDHASTAAPDQALLDSVKLAAPLNKQDFHMPIDSEQQINVIQIIPNQLETRLVQVPAPVAREFEPDTELDLLKIAVVERHKGLKETGLGVVKGFGFKSGAIATTISHDSHNIIAVGTNDEDIAAAVNKLQEIGGGLTIIKNGEELHSVPLPIAGLLSDQSAEQVNQSLLTLHDKLSLIGFTGGFNPFLTLSFLALPVIPDIKMTTTGLFDVKSFQHISLQ” the “soluble on expression in E. coli” value was “not soluble”.
In the case of “MVKETEYYDILGIKPEATPTEIKKAYRRKAMETHPDKHPDDPDAQAKFQAVGEAYQVLSDPGLRSKYDQFGKEDAVPQQGFEDASEYFT”, the “soluble on expression in E. coli” value is reported as “not soluble”.
For “MGSDKIHHHHHHMHSMALPESSYERLRAADCADEIAYVRACLRLYFSGAAAAAGDVSMPNLSAAAVADIARLNKVATFVLKVLSRAPVGERPAELFQWLDTYRRRTVSMNAACLMDSMVIHQALRDRQIDFVFLKGPFQQHLLYDDHFMKPSGDVDILVSPAGFSRARDALRSIGYEVSGKSRSVWWVRFLGEQHMIRGNGPSTVDLHYRLQQPGSPSPRDADGFLRRKRLVEITGTEVPFTSAADTLMLSCISVAKALFNHEPCAGYVCDIRASANRLGEADQQRVLDAAVSQGLDDTLLLGLRAADVLLGATGTLLSERAKPILSRIGNEDLLNMVIAPWLSSLRWPQRRTVLWELCGRAPVRYLAEAAWAASADISRRIFERPASP”, the “soluble on expression in E. coli” value was “not soluble”.
For “MGSDKIHHHHHHMAGRRAIAQNLLISNNDRQERTTRMNDKRNCFLPHDKLQHLIDSLQNAGYSCVGPQVRDGAIVYDVLTRAEQLPWGMRDHQEPGGYRLEQIPERKAFAFANGPQGIKPLLFKPQETVWRVERDEQGKLCFKPHQPDETPVAIIGSRACDLAAMSIQDKVFIENNKPDPRYKRRREQLFVVAVNCTYSSANCFCVSAGTGPAVNNSFDILMTEIEDGFVVEAGSDKGKKIMNQLDLHDAKSAQCTDAQNNVKQAAALQTKRIPLDNKRDLRDLLFSNLNHTRWDDVAERCLSCGNCTLVCPTCFCHSEVEKPGLDGCTSEHHREWDSCFTTGHTYLNGKIIRDDTKKQYRQWLTHKVGSWFDQFDTSGCVGCGRCVTWCPVGIDITEELAAISGESNARKIENE”, the “soluble on expression in E. coli” value was “not soluble”.
For “MSERRDCIVCTSGTCGRSWVFFRSGSGRRCIRSIFRESEGRTFGSNRISGSADHWTAIVERRKSRERGSKMKKEMTNDMTVGSPTKLIIQFMIPMCLGNVFQQFYNIADS”, the “soluble on expression in E. coli” value was “not soluble”.
For “MGNIMSASFAPECTDLKTKYDSCFNEWYSEKFLKGKSVENECSKQWYAYTTCVNAALVKQGIKPALDEAREEAPFENGGKLKEVDK”, the “soluble on expression in E. coli” value was “soluble”.
For “MGNFHATTIFAVHHNGECAMAGDGQVTMGNAVVMKHTARKVRKLFQGKVLAGFAGSVADAFTLFEMFEGKLEEYNGNLQRAAVEMAKQWRGDKMLRQLEAMLIVMDKTTMLLVSGTGEVIEPDDGILAIGSGGNYALSAGRALKQYASEHLTAKQIAKASLEIAGDICVYTNHNIIVEEL”, the “soluble on expression in E. coli” value was “not soluble”.
For “MGSDKIHHHHHHMEAKKSKAIVFSGVNQIELREVTLKPVSSTDVLVETWWSSISTGTEKMALNGLIPSPPFIFPFIPGYETVGRIVEAGDHVNQGLIGKFAYVAGSFGYEDVNAAFGGASQFIVCPVESLTVLDGIANPQCGIALPLGATALHIVDLAEVKNRKVLVLGQGAVGILAAELAKRFGASLVAVTEPHQRRLDISTSDIKVNPEKQDVSVALAGHEFDVLIDSTGIMSAIETGLRFLKFHGKVIFGGYYQRMNIDYSQAFNKELSFIAARQWAKGDLHRVRELIAAGKINAEKIFTHQCTVDDNLMEAYMQAFSDSDCLKMIIHWKHGNEAGEHFPTCNTAN”, the “soluble on expression in E. coli” value was “not soluble”.
For “MALPESESARTEQALGRLVGSLCVVTAQQGELSSAMLASWVSQATFSPPGLTVAVAKERAIESLLHKNSCFVLNILQEGNHLGLMKHFLKPFAPGGDRFADVATETAENGAPILTESLAYLECRVQQRLECGDHWVLYAVTDRGALLKDGVTAVHHRKSGDHYLEHHHHHH”, the “soluble on expression in E. coli” value was “not soluble”.
With “SNAMSTISRDSCPALRAGVRLQHDRARDQWVLLAPERVVELDDIALVVAQRYDGTQSLAQIAQTLAAEFDADASEIETDVIELTTTLHQKRLLRL” the “soluble on expression in E. coli” value was “soluble”.
In the case of “MMRPTVFSSKAVISSSSLSASLAGAKIIEKGGNIFDAAIAVSSVLSVTQNNLCGLGGDAFALVRYNGRVKGYNGSGKSSRNVNRGLYFELGYSRIPERGIYSAITVPGLVDLWNSLYLEYATMRFSDLISDAIKYAETGFYITRHYEESLIASSPILGQYNWSNQFMPYGKIPAEGDLFIQKDLAGTLREIAEEGPRSFYDGYLSDIIFKAMEKTNLLIDSKDLSDHKTLAANPVKSTYMDYDVFETAPNSQGATVNYWLALLEQKIQNKIPRPVDIVESGLEAYRWRSMFIGDPERMPFNGDLLSKGAGPYYNNPRVPEDKGDTTYFSISDANGNSISMIQSNYMGFGSGIIPEGTGFVLQNRGSYFTLDDKHHNSLEPRKRTFHTLAACIIEKDGELVYSLGTMGGDIQPQVQVQIITGLINQDLMPQEAIERPRWAFPATIYEQPSVLNVEDTSLINENETRLRINPMKYSSSFGTAQVTALLNGRVAGGSDPRGDGFSIPVMAGDPLEHHHHHH”, the “soluble on expression in E. coli” value is reported as “not soluble”.
